In paper PMC3572911 (Biochemistry, 2013):

Target: the molecule itself
Experiment: crystal structure

B1: human liver pyruvate kinase (L-PYK) with the S12D mimic of phosphorylation (enzyme)
chain: not shown
modifications: Cys436 partially oxidized to the sulfenic derivative (sulfenic acid)
stoichiometry N: 4
